Assay results taken from article PMC4434323.

Key:
[1] = molecular target: T1, atf-5 (T04C10.4) (Caenorhabditis elegans) (UniProt Q22156)
T1 sequence: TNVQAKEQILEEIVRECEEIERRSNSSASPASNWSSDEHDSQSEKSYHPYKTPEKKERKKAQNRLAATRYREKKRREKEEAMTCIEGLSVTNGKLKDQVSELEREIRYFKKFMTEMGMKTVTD

[2] = molecular target: T2, nhr-204 (R02C2.4) (Caenorhabditis elegans) (UniProt O44543)
T2 sequence: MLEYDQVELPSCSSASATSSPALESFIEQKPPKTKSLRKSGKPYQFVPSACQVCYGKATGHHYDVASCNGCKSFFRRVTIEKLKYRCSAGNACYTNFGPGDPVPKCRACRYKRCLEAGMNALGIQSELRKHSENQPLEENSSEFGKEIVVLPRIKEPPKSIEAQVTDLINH

[3] = molecular target: T3, nhr-3 (H01A20.1) (Caenorhabditis elegans) (UniProt Q9XTJ4)
T3 sequence: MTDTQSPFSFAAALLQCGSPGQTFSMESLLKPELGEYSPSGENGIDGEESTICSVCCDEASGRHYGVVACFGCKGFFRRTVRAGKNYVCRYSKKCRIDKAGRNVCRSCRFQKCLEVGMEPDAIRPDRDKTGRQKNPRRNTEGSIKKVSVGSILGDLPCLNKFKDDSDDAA

[4] = molecular target: T4, nhr-42 (C33G8.6) (Caenorhabditis elegans) (UniProt O76828)
T4 sequence: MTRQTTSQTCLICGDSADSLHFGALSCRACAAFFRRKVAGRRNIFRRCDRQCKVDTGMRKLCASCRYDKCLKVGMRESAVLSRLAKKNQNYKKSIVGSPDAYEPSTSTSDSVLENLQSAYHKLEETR

[5] = molecular target: T5, daf-12 (F11A1.3) (Caenorhabditis elegans) (UniProt G5EFF5)
T5 sequence: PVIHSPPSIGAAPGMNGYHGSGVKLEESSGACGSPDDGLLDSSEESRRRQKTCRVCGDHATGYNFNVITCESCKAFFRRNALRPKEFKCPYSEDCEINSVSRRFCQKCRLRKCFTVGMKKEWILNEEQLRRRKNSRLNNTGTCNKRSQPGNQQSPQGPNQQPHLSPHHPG

[6] = molecular target: nhr-34 (F58G6.5) (Caenorhabditis elegans) (UniProt Q21006)
[7] = molecular target: T6, nhr-46 (C45E5.6) (Caenorhabditis elegans) (UniProt Q95QR2)
T6 sequence: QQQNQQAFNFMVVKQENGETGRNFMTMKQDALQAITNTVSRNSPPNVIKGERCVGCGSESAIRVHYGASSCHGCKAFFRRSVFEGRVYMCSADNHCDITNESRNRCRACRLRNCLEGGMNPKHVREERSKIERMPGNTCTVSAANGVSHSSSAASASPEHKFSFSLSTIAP

[8] = molecular target: T7, nhr-142 (F44E7.8) (Caenorhabditis elegans) (UniProt J7SF93)
T7 sequence: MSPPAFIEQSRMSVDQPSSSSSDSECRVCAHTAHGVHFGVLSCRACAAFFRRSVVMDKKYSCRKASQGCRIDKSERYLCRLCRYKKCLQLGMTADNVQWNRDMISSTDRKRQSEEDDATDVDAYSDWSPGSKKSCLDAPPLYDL

[9] = molecular target: T8, unc-120 (D1081.2) (Caenorhabditis elegans) (UniProt Q18955)
T8 sequence: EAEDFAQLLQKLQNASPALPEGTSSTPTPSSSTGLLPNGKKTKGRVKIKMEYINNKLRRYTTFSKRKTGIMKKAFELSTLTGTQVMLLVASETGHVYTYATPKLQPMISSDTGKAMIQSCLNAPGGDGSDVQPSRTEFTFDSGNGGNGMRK

Sequence of nhr-34 (F58G6.5) (Caenorhabditis elegans) (Q21006 99-268): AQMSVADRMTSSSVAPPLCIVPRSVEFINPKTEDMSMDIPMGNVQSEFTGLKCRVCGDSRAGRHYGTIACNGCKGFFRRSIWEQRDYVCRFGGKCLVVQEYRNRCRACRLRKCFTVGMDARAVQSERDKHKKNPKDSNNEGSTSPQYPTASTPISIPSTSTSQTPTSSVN

Work on “CGTCAGCA (double strand) [8-mer CGTCAGCA]” yielded a binding signal (PBM E-score (-0.5 to 0.5)) [1] of 0.457.

Sequence “GACCAAAA (double strand) [8-mer GACCAAAA]” has a binding signal (PBM E-score (-0.5 to 0.5)) [2] of 0.476.

“TAGACCAA (double strand) [8-mer TAGACCAA]” gave a binding signal (PBM E-score (-0.5 to 0.5)) [2] of 0.479.

“AAGATCAC (double strand) [8-mer AAGATCAC]” showed a binding signal (PBM E-score (-0.5 to 0.5)) [3] of 0.471.

“GACTACGA (double strand) [8-mer GACTACGA]” gave a binding signal (PBM E-score (-0.5 to 0.5)) [4] of 0.487.

“AGGTCAAC (double strand) [8-mer AGGTCAAC]” was tested, and the binding signal (PBM E-score (-0.5 to 0.5)) [3] was 0.465.

“CAAGTGCA (double strand) [8-mer CAAGTGCA]” was tested, and the binding signal (PBM E-score (-0.5 to 0.5)) [5] was 0.493.

“CAAGATCA (double strand) [8-mer CAAGATCA]” showed a binding signal (PBM E-score (-0.5 to 0.5)) [6] of 0.474 and a binding signal (PBM E-score (-0.5 to 0.5)) [7] of 0.463.

“TAAGTGCA (double strand) [8-mer TAAGTGCA]” was tested, and the binding signal (PBM E-score (-0.5 to 0.5)) [5] was 0.496.

Work on “AAGATCAT (double strand) [8-mer AAGATCAT]” yielded a binding signal (PBM E-score (-0.5 to 0.5)) [7] of 0.476.

In the case of “TAGATCAA (double strand) [8-mer TAGATCAA]”, the binding signal (PBM E-score (-0.5 to 0.5)) [7] is reported as 0.465.

Work on “AGATCAAT (double strand) [8-mer AGATCAAT]” yielded a binding signal (PBM E-score (-0.5 to 0.5)) [3] of 0.473, a binding signal (PBM E-score (-0.5 to 0.5)) [6] of 0.486 and a binding signal (PBM E-score (-0.5 to 0.5)) [7] of 0.49.

In the case of “CAGTCACA (double strand) [8-mer CAGTCACA]”, the binding signal (PBM E-score (-0.5 to 0.5)) [8] is reported as 0.483.

“AAGATCAG (double strand) [8-mer AAGATCAG]” showed a binding signal (PBM E-score (-0.5 to 0.5)) [3] of 0.466 and a binding signal (PBM E-score (-0.5 to 0.5)) [6] of 0.47.

With “AATTGGTC (double strand) [8-mer AATTGGTC]” the binding signal (PBM E-score (-0.5 to 0.5)) [2] was 0.484.

In the case of “GGAGATCA (double strand) [8-mer GGAGATCA]”, the binding signal (PBM E-score (-0.5 to 0.5)) [6] is reported as 0.473.

In the case of “TATATGGA (double strand) [8-mer TATATGGA]”, the binding signal (PBM E-score (-0.5 to 0.5)) [9] is reported as 0.478.

“AAGTGCAG (double strand) [8-mer AAGTGCAG]” was tested, and the binding signal (PBM E-score (-0.5 to 0.5)) [5] was 0.492.

“TGATCAAA (double strand) [8-mer TGATCAAA]” gave a binding signal (PBM E-score (-0.5 to 0.5)) [2] of 0.483.

“ATATAAGG (double strand) [8-mer ATATAAGG]” gave a binding signal (PBM E-score (-0.5 to 0.5)) [9] of 0.478.

In the case of “ATGATCTC (double strand) [8-mer ATGATCTC]”, the binding signal (PBM E-score (-0.5 to 0.5)) [7] is reported as 0.46.

For “TACCATAA (double strand) [8-mer TACCATAA]”, the binding signal (PBM E-score (-0.5 to 0.5)) [9] was 0.462.

“CCTTATAA (double strand) [8-mer CCTTATAA]” gave a binding signal (PBM E-score (-0.5 to 0.5)) [9] of 0.474.

“ACAGATCA (double strand) [8-mer ACAGATCA]” gave a binding signal (PBM E-score (-0.5 to 0.5)) [3] of 0.456.

Sequence “TCTGATCA (double strand) [8-mer TCTGATCA]” has a binding signal (PBM E-score (-0.5 to 0.5)) [2] of 0.482.

For “GAGTCACA (double strand) [8-mer GAGTCACA]”, the binding signal (PBM E-score (-0.5 to 0.5)) [8] was 0.485.

“CGAGATCA (double strand) [8-mer CGAGATCA]” showed a binding signal (PBM E-score (-0.5 to 0.5)) [6] of 0.472 and a binding signal (PBM E-score (-0.5 to 0.5)) [7] of 0.46.

Sequence “GAGTTCAA (double strand) [8-mer GAGTTCAA]” has a binding signal (PBM E-score (-0.5 to 0.5)) [6] of 0.471.

With “CGTCAGCC (double strand) [8-mer CGTCAGCC]” the binding signal (PBM E-score (-0.5 to 0.5)) [1] was 0.491.

With “CGTCATCC (double strand) [8-mer CGTCATCC]” the binding signal (PBM E-score (-0.5 to 0.5)) [1] was 0.487.

In the case of “AAGTACAT (double strand) [8-mer AAGTACAT]”, the binding signal (PBM E-score (-0.5 to 0.5)) [5] is reported as 0.495.
